Experimental data published in PMC4856295 (Nature, 2016).

How the values were obtained:
cryo-EM structure = biological target: the molecule itself; test: cryo-EM structure
[1] = biological target: TATA-binding protein (TBP), subunit of endogenous human TFIID (human, UniProt P20226 1-339); test: cryo-EM structure
TATA-binding protein (TBP), subunit of endogenous human TFIID, sequence (P20226 whole entry): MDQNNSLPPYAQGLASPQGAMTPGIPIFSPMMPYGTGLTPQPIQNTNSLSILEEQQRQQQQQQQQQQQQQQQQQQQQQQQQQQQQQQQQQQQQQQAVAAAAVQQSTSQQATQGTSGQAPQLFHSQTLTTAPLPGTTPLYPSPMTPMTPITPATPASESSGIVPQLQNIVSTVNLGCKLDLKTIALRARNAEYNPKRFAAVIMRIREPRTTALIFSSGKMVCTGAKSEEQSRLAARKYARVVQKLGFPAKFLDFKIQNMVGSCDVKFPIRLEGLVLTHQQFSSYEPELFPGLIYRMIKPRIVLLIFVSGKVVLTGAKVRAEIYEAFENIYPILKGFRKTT

B1: TAF6, subunit of endogenous human TFIID (natural protein)
chain: not shown
For B1, the “stoichiometry N” value (cryo-EM structure) was 2.

B2: human TFIIA (conserved three-subunit core TFIIA) (complex)
chain 1: ANSANTNTVPKLYRSVIEDVINDVRDIFLDDGVDEQVLMELKTLWENKLMQSRAVDG
chain 2: GAEDGQVEEEPLNSEDDVSDEEGQELFDTENVVVCQYDKIHRSKNKWKFHLKDGIMNLNGRDYIFSKAIGDAEW
chain 3: AYQLYRNTTLGNSLQESLDELIQSQQITPQLALQVLLQFDKAINAALAQRVRNRVNFRGSLNTYRFCDNVWTFVLNDVEFREVTELIKVDKVKIVACDGKNTGSNTTE
B2: binds [1].
